According to US20080311122A1 (AstraZeneca / MedImmune, published 2008):

Key:
[1] = target: T1, HMGB1 in sera of septic peritonitis mice (mouse, UniProt P63158 1-215); test: sandwich ELISA: antibody (10 ug/ml) captured on anti-human Fc, sample added, mouse anti-HMGB1 and anti-mouse-HRP, OD 450
T1 construct: also called HMGB1 from sepsis sera (ELISA); peritonitis sera
T1 sequence (looked up): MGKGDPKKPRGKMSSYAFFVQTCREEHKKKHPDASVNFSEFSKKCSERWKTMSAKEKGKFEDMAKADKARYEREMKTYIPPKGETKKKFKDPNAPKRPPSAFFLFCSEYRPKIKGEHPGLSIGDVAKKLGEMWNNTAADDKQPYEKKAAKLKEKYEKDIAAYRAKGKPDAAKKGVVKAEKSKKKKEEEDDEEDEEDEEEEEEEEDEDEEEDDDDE
Protocol: (§1) HMGB1 Detection from Biological Samples: For detection of the HMGB1 from AA joint homogenates and peritonitis sera, sandwich ELISA was performed. Goat anti-human Fc (Pierce) 14 μg/ml in PBS was coated on Immunlon IV microtiter plate over night at 4° C. After washing and blocking with 5% milk 1 hr at room temperature, G4 or S6 in blocking buffer (10 μg/ml) were added to each well of the blocked plate. The plate was washed 1 hour later and 25 μl of AIA homogenates containing 0.8 μg/ml of HMGB1 or peritonitis sera containing 7 μg/ml of HMGB1 in 0.5 M NaCl/blocking buffer were added to the wells at two fold serial dilutions. The unbound materials were removed by washing one hr after incubation. The bound HMGB1 was detected by a mouse anti-HMGB1 antibody at 2 μg/ml followed by an anti-mouse antibody conjugated with horseradish peroxidase. Mouse peritonitis sera was obtained by heart puncture 7 days after infection with heat killed staphylococcus aureus. Joint lysate was prepared from the whole paw of AIA rats as described in Example 6 below. Human sepsis sera were purchased from a commercial source.

[2] = target: T2, native nuclear HMG1 prepared from 293H cells by freeze thaw (human, UniProt P09429 1-215); test: sandwich ELISA: antibody captured on anti-human IgG Fc, native HMGB1 0.7 ug/ml in solution, mouse anti-HMGB1 and anti-mouse IgG-HRP, OD 450
T2 construct: unpurified cell lysate supernatant
T2 sequence (looked up): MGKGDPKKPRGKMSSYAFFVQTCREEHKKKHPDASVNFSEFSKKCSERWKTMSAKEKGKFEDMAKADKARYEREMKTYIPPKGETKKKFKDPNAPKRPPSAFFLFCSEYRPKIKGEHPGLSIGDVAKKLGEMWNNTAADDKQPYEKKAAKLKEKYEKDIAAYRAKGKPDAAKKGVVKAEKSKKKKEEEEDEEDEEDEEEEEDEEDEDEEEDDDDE
Protocol: Sandwich ELISA (soluble HMG1): Immunoplates (EIA/RIA plate, High binding, Costar) were coated with anti human IgG Fc at 10 μg/ml in PBS (pH 7.2) and incubated at 4° C. overnight. The coating reagent was removed and the plates were rinsed briefly with PBS. The plates were then blocked with 4% milk for 1 hour at 37° C. and rinsed with PBS. The anti-HMG1 antibodies were diluted in 4% milk. For serial dilutions, the antibodies were used at a starting concentration of 20 μg/ml. The diluted anti-HMG1 antibodies were then added into plate and incubated for 1 hr at 37° C. The plate was then washed 10 times with PBST (PBS/0.1% tween 20) and incubate with antigen (HMGB1, 2 μg/ml; or 0.7 μg/ml for native HMGB1) in 4% milk and incubated at 37° C. for 1 h. The plate was then wash 10 times and incubated with mouse anti-HMGB1, 1 μg/ml in 4% milk at 37° C. for 1 h. The plate was washed 10 times and incubated with anti-mouse IgG-HRP at 1:1000 at 37° C. for 1 h. The plate was then washed and developed. HRP activity was detected with Sureblue HRP substrate (KPL). Plates were read at 450 nm using a Kinetic Microplate Reader (Molecular Devices).

[3] = target: T3, HMGB1 in joint lysates of adjuvant induced arthritis (AIA) rats (rat, UniProt P63159 2-215); test: sandwich ELISA and immunoprecipitation with Western blot
T3 construct: also called HMGB1 from arthritis joints; AA joint lysates
T3 sequence (looked up): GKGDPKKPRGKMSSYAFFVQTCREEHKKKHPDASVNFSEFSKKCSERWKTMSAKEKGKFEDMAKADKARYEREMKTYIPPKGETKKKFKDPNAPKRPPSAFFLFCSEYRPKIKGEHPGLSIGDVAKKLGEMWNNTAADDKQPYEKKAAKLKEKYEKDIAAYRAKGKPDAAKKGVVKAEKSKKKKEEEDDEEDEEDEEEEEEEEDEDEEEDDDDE
Protocol: as §1
Immunoprecipitation and Western Blot: Anti-HMGB1 mAbs (G4 and S6) and isotype control were first biotinylated using EZ-Link Sulfo-NHS-LC-Biotin as instructed by the manufacturer (Pierce). After labeling, the mAb was tested for binding to HMGB1 by ELISA with unlabeled mAbs as controls. […]

B1: anti-HMG1 antibody S6 (antibody, V domains shown)
VH: EVQLLESGGGLVQPGGSLRLSCAASGFTFSWYDMSWVRQAPGKGLEWVSRISPSGGYTMYADSVKGRFTISRDNSKNTLYLQMNSLRAEDTAVYYCARLEVGATSGGTAFDIWGQGTMVTVSS
VL: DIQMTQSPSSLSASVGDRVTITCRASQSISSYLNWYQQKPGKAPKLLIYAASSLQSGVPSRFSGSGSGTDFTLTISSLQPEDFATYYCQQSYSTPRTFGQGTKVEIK
notes: also called ATCC PTA-6143
[1]
  binding result: binds

B2: anti-HMG1 antibody S2 (antibody, V domains shown)
VH: EVQLLESGGGLVQPGGSLRLSCAASGFTFSGYMMVWVRQAPGKGLEWVSRISPSGGQTGYADSVKGRFTISRDNSKNTLYLQMNSLRAEDTAVYYCAREEGGSYGAFDIWGQGTMVTVSS
VL: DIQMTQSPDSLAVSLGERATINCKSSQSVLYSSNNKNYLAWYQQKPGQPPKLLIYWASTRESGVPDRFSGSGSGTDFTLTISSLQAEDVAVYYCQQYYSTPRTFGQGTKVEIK
notes: also called ATCC PTA-6142
[2]
  EC50 (read off the curve): ~0.8 µg/mL

B3: anti-HMG1 antibody G4 (antibody, V domains shown)
VH: EVQLLESGGGLVQPGGSLRLSCAASGFTFSWYDMTWVRQAPGKGLEWVSSISPSGGYTKYADSVKGRFTISRDNSKNTLYLQMNSLRAEDTAVYYCTTEFYDYLDVWGKGTTVTVSS
VL: DIQMTQSPGTLSLSPGEGATLSCRASQSVSSTYLAWYQQKPGQAPRLLIYEASKRATGTPARFSGSGSGTDFTLSISSLEPEDFAVYYCQHRHNWPPQWTFGQGTKVEVK
notes: also called ATCC PTA-6258
[3]
  binding result: binds
